Test results: US20240100176A1 (Eli Lilly, published 2024)

Columns and labels:
[1] = target: T1, hexahistidine tagged human IL-4Rα ECD E6R (human, UniProt P24394 26-232); test: capture ELISA: Ab1 on anti-human IgG Fc, His-tagged receptor at 1 µg/mL, anti-His HRP
T1 construct: not shown: hexahistidine tag
Excerpt: (§1) Example 2d. […] Briefly, thirty surface amino acid residue substitutions were introduced individually into hexahistidine tagged human IL-4Rα extra cellular domain (ECD) as follows: K2D, E6R, K22D, P26R, T31R, F41A, L42G, L43G, E45R, E52R, G56R, D66R, A71R, Q82G, K87D, E94R, H107A, D108R, P124R, D125R, D143R, R148D, L155R, R160D, S164R, S168R, Q181R, P192R, K195D, or H197G. Each mutant protein having a single amino acid residue substitution as described above was transiently expressed in CHO cells and purified using standard immobilized metal affinity chromatography techniques. […] The plates were then washed 3 times with PBST and the exemplified human IL-4Rα antibody was added to the wells at a final concentration of 1 μg/mL in PBS-casein and incubated for 1 hour at room temperature. The plates were washed 3 times with PBST, the IL-4Rα mutant proteins were serially diluted 5-fold from 1 μg/mL for 3 points. in PBS-casein and added to the plate at 50 μL/well and incubated for 1 hour at room temperature. The plates were washed 3 times with PBST and a 1000-fold dilution of anti-histidine tag antibody HRP conjugate (R&D Systems, Cat. #MAB050H) in PBS-casein was added and incubated for 45 minutes at room temperature. The plates were washed 3 times, TMB substrate (Pierce, Cat. #34028) was added per manufacturer instructions, the reaction was quenched with H₂SO₄, and absorbance was read at 450 nm on an ELISA plate reader.

[2] = target: T2, hexahistidine tagged human IL-4Rα ECD P26R (human, UniProt P24394 26-232); test: as above
T2 construct: not shown: hexahistidine tag
Excerpt: as §1

[3] = target: T3, hexahistidine tagged human IL-4Rα ECD T31R (human, UniProt P24394 26-232); test: as above
T3 construct: not shown: hexahistidine tag
T3 sequence (P24394 26-232 T56R): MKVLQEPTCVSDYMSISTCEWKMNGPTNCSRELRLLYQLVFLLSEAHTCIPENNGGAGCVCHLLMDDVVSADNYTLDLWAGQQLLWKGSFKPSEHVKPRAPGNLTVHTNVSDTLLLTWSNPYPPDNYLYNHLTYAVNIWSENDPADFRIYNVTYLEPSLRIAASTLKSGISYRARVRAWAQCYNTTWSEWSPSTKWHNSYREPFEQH
Excerpt: as §1

[4] = target: T4, hexahistidine tagged human IL-4Rα ECD E45R (human, UniProt P24394 26-232); test: as above
T4 construct: not shown: hexahistidine tag
T4 sequence (P24394 26-232 E70R): as the sequence (P24394 26-232 T56R) above, with R31T, E45R counted along it
Excerpt: as §1

[5] = target: T5, hexahistidine tagged human IL-4Rα ECD Q82G (human, UniProt P24394 26-232); test: as above
T5 construct: not shown: hexahistidine tag
T5 sequence (P24394 26-232 Q107G): as the sequence (P24394 26-232 T56R) above, with R31T, Q82G counted along it
Excerpt: as §1

[6] = target: T6, hexahistidine tagged human IL-4Rα ECD K87D (human, UniProt P24394 26-232); test: as above
T6 construct: not shown: hexahistidine tag
Excerpt: as §1

[7] = target: T7, hexahistidine tagged human IL-4Rα ECD D143R (human, UniProt P24394 26-232); test: as above
T7 construct: not shown: hexahistidine tag
T7 sequence (P24394 26-232 D168R): as the sequence (P24394 26-232 T56R) above, with R31T, D143R counted along it
Excerpt: as §1

[8] = target: T8, hexahistidine tagged human IL-4Rα ECD L155R (human, UniProt P24394 26-232); test: as above
T8 construct: not shown: hexahistidine tag
T8 sequence (P24394 26-232 L180R): as the sequence (P24394 26-232 T56R) above, with R31T, L155R counted along it
Excerpt: as §1

[9] = target: T9, hexahistidine tagged human IL-4Rα ECD S168R (human, UniProt P24394 26-232); test: as above
T9 construct: not shown: hexahistidine tag
Excerpt: as §1

[10] = target: T10, hexahistidine tagged human IL-4Rα ECD K195D (human, UniProt P24394 26-232); test: as above
T10 construct: not shown: hexahistidine tag
Excerpt: as §1

[11] = target: T11, human FcγRI (CD64) extracellular domain (human, UniProt P12314 16-292); test: SPR (Biacore), antibody captured on protein A, FcγR ECD as analyte, 25 °C
T11 construct: extracellular domain
T11 sequence (P12314 16-292): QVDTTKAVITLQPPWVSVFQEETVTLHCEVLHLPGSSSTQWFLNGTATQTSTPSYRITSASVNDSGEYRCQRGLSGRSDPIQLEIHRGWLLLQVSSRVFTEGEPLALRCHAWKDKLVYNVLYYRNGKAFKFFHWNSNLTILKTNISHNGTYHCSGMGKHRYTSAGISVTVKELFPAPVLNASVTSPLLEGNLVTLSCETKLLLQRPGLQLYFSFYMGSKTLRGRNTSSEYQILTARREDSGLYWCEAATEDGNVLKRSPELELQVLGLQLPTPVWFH
Protocol: Unreacted sites were blocked with a 7 minute injection of ethanolamine at 10 μL/minute. Injections of 2×10 μL of glycine, pH 1.5, was used to remove any noncovalently associated protein. Running buffer was 1×HBS-EP+(TEKNOVA, P/N H8022). The FcγR extracellular domains (ECDs)-FcγRI (CD64), FcγRIIA_131R, and FcγRIIA_131H (CD32a), FcγRIIIA_158V, FcγRIIIA_158F (CD16a), and FcγRIIb (CD32b) were produced from stable CHO cell expression and purified using IgG Sepharose and size exclusion chromatography. For FcγRI binding, antibodies were diluted to […] in running buffer, and approximately 150 RU of each antibody was captured in FCs 2 through 4 (RU captured). FC1 was the reference FC, therefore no antibody was captured in FC1. […] Duplicate injections of each concentration were injected over all FCs at 40 μL/minute for 120 seconds followed by a 1200 second dissociation phase. Regeneration was performed by injecting 15 μL of 10 mM glycine, pH 1.5, at 30 μL/minute over all FCs. […] The affinity (KD) was calculated using either steady state equilibrium analysis with the Scrubber 2 Biacore Evaluation Software or a “1:1 (Langmuir) binding” model in BIA Evaluation. […] The affinity (KD) was calculated using the steady state equilibrium analysis with the Scrubber 2 Biacore Evaluation Software. […]

T1 sequence (P24394 other isoform, or with tags, fused parts or gaps): as the sequence (P24394 26-232 T56R) above, with E6R, R31T counted along it

Row | ELISA (OD450) [1] [OD450] | ELISA (OD450) [2] [OD450] | ELISA (OD450) [3] [OD450] | ELISA (OD450) [4] [OD450] | ELISA (OD450) [5] [OD450] | ELISA (OD450) [6] [OD450] | ELISA (OD450) [7] [OD450] | ELISA (OD450) [8] [OD450] | ELISA (OD450) [9] [OD450] | ELISA (OD450) [10] [OD450] | Kd [11] [nM] | Binder
1 | 2.25 | 1.66 | 1.64 | 1.7 | 1.74 | 1.75 | 1.75 | 1.78 | 1.88 | 1.91 | – | anti-human IL-4Rα antibody Ab1 (antibody, human IgG4 S228P, kappa, human kappa light chain; also called anti-human IL-4Rα Ab1; unconjugated Ab1) heavy: QVQLVESGGGLVQPGGSLRLSCVASGFTFSHSSMNWVRQAPGKGLEWVSYISRATGAVYYADSVKGRFTISRDNAKNSLYLQMNSLRDEDTAVYYCAREPVFDYWGQGTLVTVSSASTKGPCVFPLAPCSRSTSESTAALGCLVKDYFPEPVTVSWNSGALTSGVHTFPAVLQSSGLYSLSSVVTVPSSSLGTKTYTCNVDHKPSNTKVDKRVESKYGPPCPPCPAPEFLGGPSVFLFPPKPKDTLMISRTPEVTCVVVDVSQEDPEVKFNWYVDGVEVHNAKTKPREEQFNSTYRVVSVLTVLHQDWLNGKEYKCKVSNKGLPSSIEKTISKAKGQPREPQVYTLPPSREEMTKNQVSLTCLVKGFYPSDICVEWESNGQPENNYKTTPPVLDSDGSFFLYSRLTVDKSRWQQGNVFSCSVMHEALHNHYTQKSLSLSLG light: DIQMTQSPSAMSASVGDRVTITCRASQDISNYLAWFQQKPGKVPTRLIYAASSLQSGVPSRFSGSGSGTEFTLTISSLQPEDFATYYCLQWSSYPRTFGQGTKVEIKRTVAAPSVFIFPPSDEQLKSGTASVVCLLNNFYPREAKVQWKVDNALQSGNSQESVTEQDSKDSTYSLSSTLTLSKADYEKHKVYACEVTHQGLSSPVTKSFNRGEC
2 | – | – | – | – | – | – | – | – | – | – | 0.64 | anti-human IL-4Rα Ab1 GC conjugate of Example 1b (n=4) (antibody, human IgG4 S228P, kappa, glucocorticoid receptor agonist payload-linker (GC-L, Preparation 8) conjugated to the engineered cysteines at the 124 and 378 position of the heavy chain (EU numbering); n is 4 (average DAR 4.17 by RP-HPLC, 3.85 by TOF MS)) heavy: QVQLVESGGGLVQPGGSLRLSCVASGFTFSHSSMNWVRQAPGKGLEWVSYISRATGAVYYADSVKGRFTISRDNAKNSLYLQMNSLRDEDTAVYYCAREPVFDYWGQGTLVTVSSASTKGPCVFPLAPCSRSTSESTAALGCLVKDYFPEPVTVSWNSGALTSGVHTFPAVLQSSGLYSLSSVVTVPSSSLGTKTYTCNVDHKPSNTKVDKRVESKYGPPCPPCPAPEFLGGPSVFLFPPKPKDTLMISRTPEVTCVVVDVSQEDPEVKFNWYVDGVEVHNAKTKPREEQFNSTYRVVSVLTVLHQDWLNGKEYKCKVSNKGLPSSIEKTISKAKGQPREPQVYTLPPSREEMTKNQVSLTCLVKGFYPSDICVEWESNGQPENNYKTTPPVLDSDGSFFLYSRLTVDKSRWQQGNVFSCSVMHEALHNHYTQKSLSLSLG light: DIQMTQSPSAMSASVGDRVTITCRASQDISNYLAWFQQKPGKVPTRLIYAASSLQSGVPSRFSGSGSGTEFTLTISSLQPEDFATYYCLQWSSYPRTFGQGTKVEIKRTVAAPSVFIFPPSDEQLKSGTASVVCLLNNFYPREAKVQWKVDNALQSGNSQESVTEQDSKDSTYSLSSTLTLSKADYEKHKVYACEVTHQGLSSPVTKSFNRGEC
